We go through 125 sequences from the supplement of paper PMC9112550, “Optimization of the antimicrobial peptide Bac7 by deep mutational scanning” (BMC Biology, 2022).

This data set relates to Escherichia coli TOP10. As to the kind of experiment: shrunken log2 fold change of peptide-encoding DNA abundance (4.5 h post-induction vs induction); higher = less antimicrobial activity (less host growth inhibition). As to conditions: time post-induction: 4.5 h; library: site-saturation at positions 5, 18, 19, 20.
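Further: peptides expressed intracellularly from a pBAD plasmid library in pooled LB shake-flask culture, induced with 0.3% L-arabinose, DNA abundance read by NGS, three biological replicates, DESeq2 with apeglm shrinkage.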

On to RRIRHRPPRLPRPRPRPHQWPRP, for which the “shrunken log2 fold change” value was -0.0218. As for RRIRKRPPRLPRPRPRPMQGPRP, the “shrunken log2 fold change” value was -0.00992. Regarding RRIRPRPPRLPRPRPRPGMQPRP, the “shrunken log2 fold change” value came out at 0.515. As to RRIRERPPRLPRPRPRPQSAPRP, the “shrunken log2 fold change” value is -0.227. Under RRIRCRPPRLPRPRPRPTNDPRP stands -0.218; under RRIRTRPPRLPRPRPRPISQPRP, -0.0474; under RRIRKRPPRLPRPRPRPYQRPRP, -0.0062.

Consider RRIRERPPRLPRPRPRPKIGPRP, for which the “shrunken log2 fold change” value was -0.0947.

In the case of RRIRKRPPRLPRPRPRPNKEPRP, the “shrunken log2 fold change” value was -0.0272. Under RRIRDRPPRLPRPRPRPYNRPRP stands -0.361; under RRIRTRPPRLPRPRPRPPTKPRP, 0.674. The same measure for RRIRARPPRLPRPRPRPRETPRP: 0.52; for RRIRRRPPRLPRPRPRPINNPRP: -0.407; for RRIRWRPPRLPRPRPRPKYHPRP: 0.185. The same measure for RRIRTRPPRLPRPRPRPTQGPRP: 0.358; for RRIRWRPPRLPRPRPRPSKTPRP: 0.0507; for RRIRLRPPRLPRPRPRPFQNPRP: -0.0252. Take RRIRMRPPRLPRPRPRPITVPRP: the “shrunken log2 fold change” value was 0.0226.

In the case of RRIRGRPPRLPRPRPRPQWMPRP, the “shrunken log2 fold change” value was 0.115. Under RRIRSRPPRLPRPRPRPQAFPRP stands -0.114; under RRIRFRPPRLPRPRPRPGHDPRP, 0.062. For RRIRLRPPRLPRPRPRPHTGPRP, the “shrunken log2 fold change” value was -0.158. Under RRIRNRPPRLPRPRPRPWDAPRP stands -0.157; under RRIRPRPPRLPRPRPRPPMCPRP, 0.0827. Under RRIRFRPPRLPRPRPRPGSWPRP stands 0.244.

For the sequence RRIRTRPPRLPRPRPRPIGQPRP, the “shrunken log2 fold change” value was -0.0623. The same measure for RRIRQRPPRLPRPRPRPPHNPRP: 1.15; for RRIRVRPPRLPRPRPRPTEPPRP: 0.128; for RRIRMRPPRLPRPRPRPWRAPRP: 0.595.

As to RRIRNRPPRLPRPRPRPEWGPRP, the “shrunken log2 fold change” value was 0.114. The same measure for RRIRRRPPRLPRPRPRPIFEPRP: 0.0525; for RRIRSRPPRLPRPRPRPYSIPRP: -0.376; for RRIRQRPPRLPRPRPRPEPAPRP: 0.789. For RRIRLRPPRLPRPRPRPEAHPRP, the “shrunken log2 fold change” value was -0.187. Under RRIRQRPPRLPRPRPRPFIKPRP stands -0.382; under RRIRERPPRLPRPRPRPKQDPRP, -0.252; under RRIRYRPPRLPRPRPRPKLSPRP, -0.204. Under RRIRVRPPRLPRPRPRPKKKPRP stands -0.356. Under RRIRNRPPRLPRPRPRPQVVPRP stands 0.0145. For RRIRIRPPRLPRPRPRPRRWPRP, the “shrunken log2 fold change” value is 0.592. As to RRIRIRPPRLPRPRPRPYAEPRP, the “shrunken log2 fold change” value is -0.844. With RRIRYRPPRLPRPRPRPIIWPRP, the “shrunken log2 fold change” value was -0.152. Under RRIRCRPPRLPRPRPRPNMQPRP stands -0.423; under RRIRQRPPRLPRPRPRPRYPPRP, -0.0427; under RRIRWRPPRLPRPRPRPHDIPRP, 0.00165.

In the case of RRIRWRPPRLPRPRPRPQMLPRP, the “shrunken log2 fold change” value turned out to be 0.313. In the case of RRIRDRPPRLPRPRPRPLKQPRP, the “shrunken log2 fold change” value amounted to 0.681. With RRIRYRPPRLPRPRPRPSDPPRP, the “shrunken log2 fold change” value is -0.374. The same measure for RRIRSRPPRLPRPRPRPYYIPRP: -0.461.

On to RRIRLRPPRLPRPRPRPIWVPRP, for which the “shrunken log2 fold change” value is -0.0362.

On to RRIRCRPPRLPRPRPRPRIHPRP, for which the “shrunken log2 fold change” value was -0.226. In the case of RRIRVRPPRLPRPRPRPARNPRP, the “shrunken log2 fold change” value was 0.414.

With RRIRNRPPRLPRPRPRPEQQPRP, the “shrunken log2 fold change” value came out at 0.736. Under RRIRTRPPRLPRPRPRPICKPRP stands -0.0914; under RRIRQRPPRLPRPRPRPWGEPRP, -0.0675.

Consider RRIRKRPPRLPRPRPRPGQWPRP, for which the “shrunken log2 fold change” value worked out at 0.181. RRIRERPPRLPRPRPRPSWWPRP: the “shrunken log2 fold change” value is 2.26.

On to RRIRNRPPRLPRPRPRPQMWPRP, for which the “shrunken log2 fold change” value is -0.234. The same measure for RRIRARPPRLPRPRPRPMESPRP: 0.0501. The same measure for RRIRSRPPRLPRPRPRPKRAPRP: 0.326; for RRIRMRPPRLPRPRPRPDNPPRP: 0.0534. Turning to RRIRFRPPRLPRPRPRPIMCPRP, the “shrunken log2 fold change” value is -0.273. The same measure for RRIRIRPPRLPRPRPRPSIHPRP: -1.28; for RRIRERPPRLPRPRPRPTNLPRP: -0.0315.

With RRIRYRPPRLPRPRPRPSPQPRP, the “shrunken log2 fold change” value is -0.195. RRIRARPPRLPRPRPRPNCYPRP: the “shrunken log2 fold change” value was -0.211. As to RRIRYRPPRLPRPRPRPHVYPRP, the “shrunken log2 fold change” value was -0.748. On to RRIRSRPPRLPRPRPRPDTGPRP, for which the “shrunken log2 fold change” value is -0.00127.

Take RRIRIRPPRLPRPRPRPRFPPRP: the “shrunken log2 fold change” value was 0.0241.

As for RRIRSRPPRLPRPRPRPRCHPRP, the “shrunken log2 fold change” value was -0.0928.

With RRIRFRPPRLPRPRPRPMARPRP, the “shrunken log2 fold change” value is -0.0235. The same measure for RRIRRRPPRLPRPRPRPCVKPRP: 0.252; for RRIRQRPPRLPRPRPRPPPKPRP: 0.876.

In the case of RRIRIRPPRLPRPRPRPVNHPRP, the “shrunken log2 fold change” value was -0.288. In the case of RRIRTRPPRLPRPRPRPIMDPRP, the “shrunken log2 fold change” value is -0.233. For the sequence RRIRKRPPRLPRPRPRPFRAPRP, the “shrunken log2 fold change” value is 0.201. The same measure for RRIRFRPPRLPRPRPRPFIMPRP: -0.655. The same measure for RRIRHRPPRLPRPRPRPSQWPRP: -0.451; for RRIRHRPPRLPRPRPRPCLWPRP: -0.0157; for RRIRERPPRLPRPRPRPSRKPRP: 0.113. The same measure for RRIRCRPPRLPRPRPRPHAEPRP: 0.315; for RRIRFRPPRLPRPRPRPEGEPRP: -0.0563; for RRIRHRPPRLPRPRPRPNMFPRP: -0.464. RRIRMRPPRLPRPRPRPHPRPRP: the “shrunken log2 fold change” value is 1.04. The same measure for RRIRYRPPRLPRPRPRPCDAPRP: -0.255. Take RRIRNRPPRLPRPRPRPRYFPRP: the “shrunken log2 fold change” value is -0.342.

As to RRIRARPPRLPRPRPRPNDFPRP, the “shrunken log2 fold change” value was -0.214. Under RRIRQRPPRLPRPRPRPYRHPRP stands -0.268; under RRIRARPPRLPRPRPRPNCIPRP, -0.113; under RRIRGRPPRLPRPRPRPTYEPRP, 0.318. For RRIRVRPPRLPRPRPRPNAPPRP, the “shrunken log2 fold change” value amounted to 0.379. As for RRIRRRPPRLPRPRPRPCPCPRP, the “shrunken log2 fold change” value was -0.176. Under RRIRWRPPRLPRPRPRPWNPPRP stands -0.219. The same measure for RRIRLRPPRLPRPRPRPAWQPRP: 0.202; for RRIRDRPPRLPRPRPRPGKKPRP: -0.00968. The same measure for RRIRMRPPRLPRPRPRPYMDPRP: 0.000784; for RRIRSRPPRLPRPRPRPFFHPRP: -0.498; for RRIRIRPPRLPRPRPRPKWAPRP: -0.105. Regarding RRIRLRPPRLPRPRPRPRPCPRP, the “shrunken log2 fold change” value was found to be 0.421. Under RRIRPRPPRLPRPRPRPLGAPRP stands 0.426. As to RRIRARPPRLPRPRPRPRLQPRP, the “shrunken log2 fold change” value stood at 0.637. The same measure for RRIRCRPPRLPRPRPRPRWKPRP: 0.847; for RRIRKRPPRLPRPRPRPTTTPRP: 0.494; for RRIRRRPPRLPRPRPRPKYVPRP: -0.194.

With RRIRIRPPRLPRPRPRPSTMPRP, the “shrunken log2 fold change” value was -1.18. RRIRSRPPRLPRPRPRPYKGPRP: the “shrunken log2 fold change” value was -0.186. Turning to RRIRMRPPRLPRPRPRPIRQPRP, the “shrunken log2 fold change” value was -0.0521.

RRIRTRPPRLPRPRPRPENRPRP: the “shrunken log2 fold change” value is -0.0266.

For the sequence RRIRKRPPRLPRPRPRPTDWPRP, the “shrunken log2 fold change” value turned out to be 0.169. Turning to RRIRERPPRLPRPRPRPQQHPRP, the “shrunken log2 fold change” value was -0.301. As to RRIRARPPRLPRPRPRPVIAPRP, the “shrunken log2 fold change” value was 0.161.

Consider RRIRTRPPRLPRPRPRPWDLPRP, for which the “shrunken log2 fold change” value amounted to 0.12.

Consider RRIRPRPPRLPRPRPRPMYHPRP, for which the “shrunken log2 fold change” value is -0.35. RRIRIRPPRLPRPRPRPKSNPRP: the “shrunken log2 fold change” value is -0.673. Under RRIRLRPPRLPRPRPRPPQHPRP stands 0.197; under RRIRSRPPRLPRPRPRPWKWPRP, 0.0473; under RRIRHRPPRLPRPRPRPMRVPRP, -0.0146. Under RRIRIRPPRLPRPRPRPPAFPRP stands -0.155. On to RRIRRRPPRLPRPRPRPLLIPRP, for which the “shrunken log2 fold change” value was 0.145. RRIRERPPRLPRPRPRPENWPRP: the “shrunken log2 fold change” value is -0.0337.

Regarding RRIRGRPPRLPRPRPRPFWIPRP, the “shrunken log2 fold change” value is -0.432.

Consider RRIRPRPPRLPRPRPRPFWTPRP, for which the “shrunken log2 fold change” value is -0.0762. The same measure for RRIRYRPPRLPRPRPRPPPTPRP: 0.867. With RRIRKRPPRLPRPRPRPERAPRP, the “shrunken log2 fold change” value turned out to be 0.892. As for RRIRNRPPRLPRPRPRPRTAPRP, the “shrunken log2 fold change” value was -0.0352.
